Measured values taken from IntAct's records for PubMed 25991726.

B1: Ribosome maturation protein SBDS (Homo sapiens), Q9Y3A5 (parent)
chain: MSIFTPTNQIRLTNVAVVRMKRAGKRFEIACYKNKVVGWRSGVEKDLDEVLQTHSVFVNVSKGQVAKKEDLISAFGTDDQTEICKQILTKGEVQVSDKERHTQLEQMFRDIATIVADKCVNPETKRPYTVILIERAMKDIHYSVKTNKSTKQQALEVIKQLKEKMKIERAHMRLRFILPVNEGKKLKEKLKPLIKVIESEDYGQQLEIVCLIDPGCFREIDELIKKETKGKGSLEVLNLKDVEEGDEKFE
partner: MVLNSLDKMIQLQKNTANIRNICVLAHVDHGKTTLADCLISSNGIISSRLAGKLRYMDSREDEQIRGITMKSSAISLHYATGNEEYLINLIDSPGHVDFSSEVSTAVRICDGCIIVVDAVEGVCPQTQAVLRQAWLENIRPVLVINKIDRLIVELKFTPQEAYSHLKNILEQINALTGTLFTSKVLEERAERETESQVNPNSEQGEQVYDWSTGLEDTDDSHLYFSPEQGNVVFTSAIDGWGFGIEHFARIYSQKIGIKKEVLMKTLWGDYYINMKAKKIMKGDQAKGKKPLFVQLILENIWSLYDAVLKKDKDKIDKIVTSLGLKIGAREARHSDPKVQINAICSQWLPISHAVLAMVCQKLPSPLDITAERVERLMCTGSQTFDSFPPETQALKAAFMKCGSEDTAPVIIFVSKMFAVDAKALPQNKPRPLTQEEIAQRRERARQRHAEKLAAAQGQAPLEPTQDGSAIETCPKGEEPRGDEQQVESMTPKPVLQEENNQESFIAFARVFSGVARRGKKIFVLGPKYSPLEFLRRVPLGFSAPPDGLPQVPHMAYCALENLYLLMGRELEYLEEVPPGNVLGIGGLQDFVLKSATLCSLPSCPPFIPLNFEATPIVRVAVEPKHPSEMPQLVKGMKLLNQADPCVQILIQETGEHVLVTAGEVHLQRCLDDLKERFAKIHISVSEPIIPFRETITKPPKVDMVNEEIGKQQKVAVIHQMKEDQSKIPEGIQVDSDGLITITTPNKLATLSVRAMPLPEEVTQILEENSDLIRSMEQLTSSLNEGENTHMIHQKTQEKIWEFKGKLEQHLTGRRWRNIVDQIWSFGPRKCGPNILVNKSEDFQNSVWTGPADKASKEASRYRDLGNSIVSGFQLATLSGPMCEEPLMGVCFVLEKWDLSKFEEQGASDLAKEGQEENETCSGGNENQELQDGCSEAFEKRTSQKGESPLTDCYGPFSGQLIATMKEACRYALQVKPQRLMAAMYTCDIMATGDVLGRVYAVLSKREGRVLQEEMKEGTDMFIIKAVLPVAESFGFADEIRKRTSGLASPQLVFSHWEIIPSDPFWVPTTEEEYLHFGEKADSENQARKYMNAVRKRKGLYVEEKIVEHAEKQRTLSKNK

Variants of: B1
Conditions: with efl1_human EFL1, Q7Z2Z2

Row | Variant | effect of a mutation on the interaction
1 | S143L | decreasing interaction strength
